From the supplement of paper PMC9732359
± gives the uncertainty stated by the source.

Experiment: protein stability index of a GFP-peptide fusion (yeast GPS) (PSI 1-4); higher = more stable; sorted into four equal gates, so the index is relative within each strain
Conditions: san1∆
Method in brief: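 Tiled 17-residue peptides from yeast proteins were fused downstream of GFP on a plasmid that also expresses Cherry, and the pooled library was carried in yeast. Mid-log cultures grown in leucine-free medium were sorted into four equal gates by GFP/Cherry fluorescence ratio. Plasmids from each gate were PCR-amplified and Illumina-sequenced, and reads were assigned to strains by barcodes. Each peptide's protein stability index is the sum, over gates, of the gate's read frequency multiplied by its gate number.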

Row | Sequence | protein stability index
1 | IETVDDKLKDIVGQTSR [ITC1] | 3.17 ± 0.086
2 | IEWAEHHRDSNFPDEDD [SKP1] | 3.08 ± 0.046
3 | IFGGAGGVPTTSFGQPQ [YOR098C/NUP1] | 1.55 ± 0.11
4 | IFLHSLPVKEFQIIDTL [RPS2] | 2.44 ± 0.073
5 | IFQAKRNSNPENTVGLI [RPN10] | 2.92 ± 0.074
6 | IGGSDAAFEKRYRVDLL [RPO21] | 3.25 ± 0.04
7 | IGGSLARIALRHLEKEG [RPS25A] | 1.82 ± 0.082
8 | IGIAGAHRVRDLMDEEL [SKI6] | 2.94 ± 0.088
9 | IGISIVGRFSTISSADF [ECM29] | 3.12 ± 0.3
10 | IGLPRHSLAYLLENFAN [RRP6] | 1.64 ± 0.072
11 | IGSNGSGKSNFFAAIRF [SMC3] | 3.02 ± 0.05
12 | IGSQRGRRLSMLASQAN [DSN1] | 1.88 ± 0.096
13 | IHGQDFQFFPKELDALQ [ISW2] | 3.11 ± 0.037
14 | IHLYMLTFHTLKKANII [YLR018C/POM34] | 1.21 ± 0.12
15 | IHQNAGRLLRAMFEICL [BRR2] | 2.21 ± 0.063
16 | IHSKSMSVERGIRWELI [RPT1] | 2.88 ± 0.071
17 | IHSLIPVAKWFVKFITY [SIN4] | 2.77 ± 0.044
18 | IHSMNENPTPEKGNAKM [SIR3] | 3.03 ± 0.059
19 | IHVLEQDGGIMGSLING [SKI6] | 3.36 ± 0.082
20 | IIELPNEKFEIELLSLD [SRB4] | 2.84 ± 0.052
21 | IIGKTTPISPDEEELGQ [RPB2] | 2.81 ± 0.23
22 | IIGPNGSGKSNMMDAIS [SMC1] | 3.03 ± 0.075
23 | IIHFHSHPEKRMIPPRM [SSN3] | 3.06 ± 0.065
24 | IINKVLDYQETYVEELF [YJL039C/NUP192] | 2.76 ± 0.12
25 | IINPHAIPSRMTVAHLI [RPB2] | 1.86 ± 0.076

Row | Sequence | protein stability index
26 | IIVFGYPESISNELIEH [YDL088C/ASM4] | 2.63 ± 0.058
27 | IKETKENDEEFYKNKYS [RPN2] | 1.31 ± 0.26
28 | IKFFWNNTHVGRQFCNR [YLR018C/POM34] | 1.74 ± 0.27
29 | IKGSKLSLGEAFKKIDA [COR1] | 2.29 ± 0.16
30 | IKIVYALTTIKGVGRRY [RPS18A] | 2.06 ± 0.17
31 | IKVPTYIRKLISSGLLY [SRB8] | 1.38 ± 0.085
32 | ILAMTYSENGKHDSLRY [RPN1] | 2.73 ± 0.2
33 | ILCGIQEYLNPVIDTQI [YDL116W/NUP84] | 2.01 ± 0.17
34 | ILDIVINNPVNLTIHFG [FAS1] | 2.5 ± 0.097
35 | ILECDLLICIGTSLKVA [SIR2] | 2.14 ± 0.15
36 | ILEDFRVIKDFKKLNSK [YMR153W/NUP53] | 3.58 ± 0.055
37 | ILEEKTDLHLPKKEYDD [NSL1] | 2.21 ± 0.12
38 | ILGIAGEDFAVLAGDTR [PRE7] | 3.32 ± 0.23
39 | ILGKNFDSVIVENLTVA [SMC1] | 2.11 ± 0.075
40 | ILKWVQWSRIVLQNVFK [MED1] | 3.29 ± 0.067
41 | ILLAGRFRGKRVVYLKH [RPL6A] | 2.04 ± 0.1
42 | ILNAKYTKETYQSRGID [RPN6] | 2.97 ± 0.06
43 | ILNHIGQLTGIYRYKYK [PRP8] | 1.26 ± 0.11
44 | ILPTDGSAEFNVKYRAV [RPB7] | 3.08 ± 0.13
45 | ILSSLYLLSIWVKKFKW [CYT1] | 1.77 ± 0.089
46 | ILSSVNRTVLLKIFKIF [SRB8] | 1.17 ± 0.16
47 | ILSTTLDPTDDEGHVLK [SIN4] | 3.01 ± 0.14
48 | ILTDLVNYRHFKAMEDV [ITC1] | 3.28 ± 0.068
49 | ILTEHLGYPPISLVDDI [MTW1] | 2.22 ± 0.071
50 | ILTSKVNAIKNEVKEWA [DSN1] | 3.07 ± 0.072

Row | Sequence | protein stability index
51 | ILYEIRALYTPFLLMEL [YDL116W/NUP84] | 2.79 ± 0.066
52 | ILYYDVLFITPDIVGHE [BRR2] | 2.61 ± 0.053
53 | IMERIKSSLSLRDHALS [ITC1] | 2.7 ± 0.18
54 | IMKFQSLSDNDLAVCAT [ECM29] | 2.69 ± 0.062
55 | IMVLDASIGQAAEQQSK [SRP54] | 3.18 ± 0.1
56 | INDAGKAKKLIQSLPPT [RPL38] | 1.96 ± 0.059
57 | INDFKKIGRENENENED [POP5] | 2.76 ± 0.19
58 | INDIRDDDIEKQEQEEK [YCG1] | 2.94 ± 0.055
59 | INLAMNESSLALEFVSL [SRB4] | 1.81 ± 0.12
60 | INNLPPEKEASSATIVL [YCG1] | 2.29 ± 0.19
61 | INSDNQNIILRSTMMKF [RPN3] | 2.77 ± 0.11
62 | INVETVYDIMALEDEER [BRR2] | 2.73 ± 0.066
63 | INVLTDQNPIQVVVDAI [RPS5] | 2.44 ± 0.055
64 | IPFPDHNQSPRNTYQSA [RPB2] | 3.22 ± 0.056
65 | IPFQTLYRSIESGEFDF [YJL039C/NUP192] | 2.11 ± 0.1
66 | IPHFIDNNSSLNVSNTK [PRP8] | 2.66 ± 0.053
67 | IPIAIVLKACGILSDLE [RET1] | 1.36 ± 0.096
68 | IPLDNYDDFIYLSDLKQ [PCI8] | 1.77 ± 0.25
69 | IPPDQQRLIFAGKQLED [RPS31] | 3.18 ± 0.038
70 | IQKESTLHLVLRLRGGI [RPL40A] | 2.35 ± 0.1
71 | IQMNNSLQNNLQNNINN [SNF11] | 3.06 ± 0.087
72 | IQRFFALHYLVPFIIAA [COB] | 1.11 ± 0.15
73 | IQRTLMELLTQMDGFDN [RPT4] | 3.28 ± 0.15
74 | IQTVVISLLALPHSPLW [YML031W/NDC1] | 1.36 ± 0.1
75 | IQVFEKPFLKKTQEYYT [CDC53] | 2.57 ± 0.078

Row | Sequence | protein stability index
76 | IRDLEKLYDKTENDIKA [RPT4] | 1.91 ± 0.22
77 | IRNIVEAAAVRDLSEAS [RPS26A] | 2.39 ± 0.079
78 | IRQDVNLGRAVFWEIQS [PRP8] | 2.64 ± 0.06
79 | ISFAIYSALNSTYLPKL [RRP42] | 2.05 ± 0.058
80 | ISGNPPLLYNSLCTVWK [SRB5] | 2.34 ± 0.048
81 | ISKRKEELEEEFRKKLK [YIL149C/MLP2] | 3.06 ± 0.089
82 | ISLLCKNFKGIEEIEYN [PCI8] | 3.11 ± 0.04
83 | ISLVDDIINAVNEIMYK [MTW1] | 2.83 ± 0.053
84 | ISRERDLFTHLWNQWLK [SRP68] | 2.99 ± 0.055
85 | ISRNGDTSYKIDGKTVS [SMC1] | 2.9 ± 0.064
86 | ISSSAIPYSRNAPAWFK [RPS13] | 2.21 ± 0.086
87 | ISTLFQRDRHTLAYDRG [PRP8] | 2.68 ± 0.082
88 | ISWCSLSETNGLHKFVK [PRE10] | 2.82 ± 0.11
89 | ITGEDEVLCSRIIEKSV [RRP45] | 2.1 ± 0.098
90 | ITHNTNITDNLFQELSK [GRR1] | 3.62 ± 0.22
91 | ITQMRVNDEEEHKQLVA [RPC82] | 2.82 ± 0.13
92 | ITRLCQTLGLESFTEEL [MED1] | 1.59 ± 0.16
93 | ITRSVMRFNIEIIADWI [BRR2] | 2.57 ± 0.097
94 | IVAKYDPPIIIFINYKQ [PRP28] | 1.98 ± 0.12
95 | IVAQSEVEVSTRDLFDL [RPO31] | 3.3 ± 0.059
96 | IVDDYWESLAKKQNLSS [SWP82] | 3.45 ± 0.1
97 | IVEQDKSMELFYDIRSL [YJL039C/NUP192] | 2.66 ± 0.086
98 | IVHHPYQSLKQIVQVLK [SSN8] | 1.18 ± 0.14

Same assay, conditions: ubr1∆

Row | Sequence | protein stability index
99 | IETVDDKLKDIVGQTSR [ITC1] | 3.03 ± 0.14
